Here are results for two molecules from patent publication US20120225028A1, “COMPOSITIONS AND METHODS FOR MOBILIZATION OF STEM CELLS” (priority 2011, published 2012).

One experiment deals with GM-CFC. As to the kind of experiment: Hematopoietic progenitor colony forming assay of WBC from treated mice. It counts as in vivo. The settings on record: for Number of GM-CFC (n = 3): median colony number per 200,000 cells plated, methylcellulose culture, 10 days of incubation, triplicate cultures; for Type of colonies formed in cultures of WBC: methylcellulose colony assay. The method, then:
WBC from treated mice were also plated in standard hematopoietic progenitor colony forming assays. Colony formation from cultures of 200,000 cells per 35 mm petri dishes were scored at 10 days of culture.
The median colony number pre 200,000 cells plated is presented from 3 triplicate cultures containing 1 ml of methycellulose plus rmIL-3, rmGM-CSF, rrSCF and rhG-CSF.

The next experiment has as its system mesenchymal stem cells. Kind of experiment: Mouse model of mobilization: MSC formation in culture of peripheral blood WBC from treated mice. Type of experiment: in vivo. The settings on record: for Stromal cell formation in cultures of WBC: SP 10 μg/kg or rhG-CSF 250 ug/kg i.p. for 4 days, PB harvested on fifth day; for Stromal cell formation in cultures of WBC / MSC / adherent stromal cell formation after 5 to 7 days of culture: 35 mm wells; for MSC / adherent stromal cell formation after 5 to 7 days of culture / MSC foci after 10 days of culture: SP 10 μg/kg, i.p. 4 days; for MSC / adherent stromal cell formation after 5 to 7 days of culture: rhG-CSF 250 μg/kg or both; for MSC foci after 10 days of culture: rhG-CSF 250 μg/kg. The method, then: To evaluate the potential of different mobilization agents, a mouse model of mobilization was used. Groups of mice (n=5) were treated with cytokines or mobilization agents and peripheral blood harvested into heparin containing tubes. The blood was treated with ammonium chloride to lyse the red cells and the white cells plated in 6 well plates treated with gelatin and evaluated for MSC formation at various time points.
Mice were injected intraperitoneally with 250 ug/kg of rhG-CSF (Amgen Inc, Thousand Oaks, Calif.) or normal saline for 5 days and PB harvested on the fifth day. The white cells were plated in media from Stem Cell Technologies (Vancouver, Canada) for culture of mesenchymal stem cells with murine supplements.
Mice (groups of 5 mice per treatment arm) were injected intraperitoneally with 10 μg/kg of Substance P (Sigma-Aldrich, St Louis, Mo.) or with 250 ug/kg of rhG-CSF for 4 days and PB harvested on the fifth day. The white cells were plated in media from Stem Cell Technologies (Vancouver, Canada) for culture of mesenchymal stem cells with murine supplements.
Mice (groups of 5 mice per treatment arm) were injected intraperitoneally with 10 μg/kg of Substance P (Sigma-Aldrich, St Louis, Mo.), with 250 μg/kg of rhG-CSF, or the combination of 10 μg/kg SP plus 250 μg/kg rhG-CSF for 4 days and PB harvested on the fifth day. The white cells were plated in media from Stem Cell Technologies (Vancouver, Canada) for culture of mesenchymal stem cells with murine supplements.

Experiment [1] concerns peripheral blood WBC. As to the kind of experiment: Peripheral blood WBC counts of treated mice. Type of experiment: in vivo. The settings on record: 7 day treatment. The method, then: G-CSF mobilization increases the circulating WBC count in mice and humans with typical counts approximately 25,000 to 30,000 WBC/μl. The effects of the combination of SP+G-CSF on peripheral WBC in treated mice was evaluated.
The different effects on peripheral WBC count of mobilization agents used were established.

A further experiment relates to MSCs or MSC precursors. Kind of experiment: Culture of rhG-CSF mobilized peripheral blood from normal donors under MSC conditions. It counts as in vivo. The settings on record: normal human donors mobilized with G-CSF, standard MSC culture. How it is done: Normal unmobilized PB and PB from normal donors mobilized with rhG-CSF was obtained and the potential of the MNCs to generate MSCs was evaluated. When placed in standard culture there was development of adherent cells that appeared like adipocyte cells and endothelial cells (FIG. 1).

The test system of experiment [2] is peripheral blood WBC. The settings on record: mice and humans, general statement; cited from earlier work.

For “Substance P (RPKPQQFFGLM; printed: Arg Pro Lys Pro Gln Gln Phe Phe Gly Leu Met) [SP, Sigma-Aldrich, reference compound]”, in the experiment with GM-CFC, the “Number of GM-CFC (n = 3)” value worked out at 5; the “Type of colonies formed in cultures of WBC” value is “colonies containing both hematopoietic and MSC cells”. In the experiment with mesenchymal stem cells, the “Stromal cell formation in cultures of WBC” value is recorded as “generated adherent stromal cells after 5 to 7 days with several foci”, the “MSC / adherent stromal cell formation after 5 to 7 days of culture” value was “a few adherent stromal cells” and the “MSC foci after 10 days of culture” value was “several MSC foci”. In the experiment with mesenchymal stem cells (WBC from SP treated mice), the “Blast like cells on cytospin slides of WBC” value is on record as “increase in blast like cells”. The “Effect on peripheral blood WBC levels” value with peripheral blood WBC [1] was “no significant effect”.

B1: rhG-CSF: recombinant human granulocyte colony-stimulating factor (Amgen) (protein, UniProt P09919 31-207, looked up)
Granulocyte …: TPLGPASSLPQSFLLKCLEQVRKIQGDGAALQEKLVSECATYKLCHPEELVLLGHSLGIPWAPLSSCPSQALQLAGCLSQLHSGLFLYQGLLQALEGISPELGPTLDTLQLDVADFATTIWQQMEELGMAPALQPTQGAMPAFASAFQRRAGGVLVASHLQSFLEVSYRVLRHLAQP
For B1, in the experiment with GM-CFC, the “Number of GM-CFC (n = 3)” value worked out at 26 and the “Type of colonies formed in cultures of WBC” value was “Typical hematopoietic colonies”. For the same molecule, the “MSC formation from mobilized peripheral blood cells” value in the experiment on MSCs or MSC precursors is given as “no evidence of MSC formation”. Moreover, the “MSC formation from mobilized peripheral blood cells” value in the experiment with MSCs or MSC precursors (listed as G-CSF) was “fail to generate mesenchymal stem cells”. Besides, the “Typical circulating WBC count after mobilization” value in the experiment on peripheral blood WBC [2] is 25,000 to 30,000 WBC/μl. In addition, in the experiment on mesenchymal stem cells (250 ug/kg intraperitoneally for 5 days, PB harvested on the fifth day), the “Adherent cells in cultures of WBC” value is “failed to proliferate and resembled endothelial cells not MSCs”. Further, in the experiment on mesenchymal stem cells, the “Stromal cell formation in cultures of WBC” value is on record as “no stromal cell formation evident”, the “MSC / adherent stromal cell formation after 5 to 7 days of culture” value was “one area with MSC cells” and the “MSC foci after 10 days of culture” value is listed as “one foci”.
